# Measured values published in the supplement of paper PMC12042874.
# ± gives the uncertainty stated by the source.
# Test: amyloid nucleation score (Sup35N fusion, yeast selection) (log enrichment); library NNK1; higher = more nucleation; inactive = no reads after selection
# Summary of the method: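 The nucleation score is a DiMSum log enrichment of output over input reads, centred on the mode score of non-aggregating sequences. Sequences under 100 input reads were excluded, and reads came from Illumina sequencing of plasmid inserts. Psi-negative yeast expressing Sup35N fused to peptides of 20 random codons were induced with 100 μM copper sulfate for 24 hours and grown 7 days at 30°C on medium lacking adenine and uracil. Random libraries had three technical output replicates.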
row,Substance,amyloid nucleation score
1,TLQTTWLKNLGDLSSSREAS,-0.184 ± 0.41
2,FNLSLLRSSCAVH,1.04 ± 0.62
3,VNDLSCIGVGGDAKDNREGN,1.34 ± 0.48
4,TFVGLRVSAHRTQWALGDT,-1.51 ± 2.4
5,YVVWQFNWLDTTHHFFELSG,-0.022 ± 0.69
6,AYYGDGFAKGTMLMTS,-0.35 ± 0.32
7,YREDKHCIHCWGVMGV,-2.16 ± 2.4
8,FTSRRATCDIGNSMNACFER,1.5 ± 0.73
9,INLCVPPRNVLFIDRCWTVV,1.29 ± 0.3
10,LSSYGYHMRVDHVTNANPSR,0.159 ± 0.43
11,RCWRSLPRLLRQFMDSSRTI,-0.27 ± 0.61
12,VSRTCIQYCDDDDRSKSRSS,0.253 ± 0.23
13,AFSSLTC,-0.087 ± 1
14,RDSGLVGIPLTRTRIVKLST,-0.35 ± 0.56
15,AFAVTASAITTVPPYREFVG,-0.545 ± 0.82
16,YLLCMGMVFSIGKFSSIPCP,inactive
17,HISLHYYKICNRFDLYNKDS,7.107 ± 0.065
18,SQFLLYSPINFLCFAENHNG,6.36 ± 0.078
19,MVNWEARQ,0.862 ± 0.64
20,LRIVS,-0.11 ± 0.4
21,HTVPILRSAVPDSDARAKSQ,0.493 ± 0.4
22,SDQNWMVPQDGPSPTSYLDD,-0.102 ± 1.5

row,Substance,amyloid nucleation score
1,VYSQINSRHWEFMDLELSLG,0.147 ± 0.93
2,GKKAYALGMSYLESCL,1.37 ± 0.73
3,ASAMLMHF,0.716 ± 0.2
4,FSCYM,0.245 ± 0.9
5,WMVSSVIRARGL,3.23 ± 0.12
6,YVFSG,-0.202 ± 0.32
7,SRPHTVWDMC,0.245 ± 0.32
8,INVIPDLD,-0.572 ± 0.5
9,GYPIDGMYKRAALVRMDICF,0.718 ± 0.92
10,YALRFFDDYESAAGSVR,-0.454 ± 0.66
11,LWKNVVWTTGPIIASWVSDL,2.04 ± 0.11
12,KTSFSCSIRSSYVDWGLGDS,2.66 ± 0.12
13,CVDCALQFLGCRVGALLTRG,-0.875 ± 1.7
14,VMADYVDNSHMVVMQTCVCM,7.667 ± 0.061
15,MLSGP,-0.161 ± 0.67
16,TAMKILPAQRGCIYVWHNRR,inactive
17,GTVSDGMSVIRVKGMRWSDY,1.13 ± 0.73
18,DQVTYRPWLRELRRQAMCLQ,0.027 ± 1.7
19,CPMWYYCRSVLSSLAVSDCS,inactive
20,GIVGGDQYMLFNLYVGFSYP,1.45 ± 0.15
21,KCRVHSSN,-1.08 ± 1.5
22,QKPTMFGA,-0.338 ± 0.28

row,Substance,amyloid nucleation score
1,DDTDLVLVMRRSIVERGMRE,0.437 ± 0.39
2,FLMYFQNRV,0.624 ± 0.33
3,RASSFAEIPVVSCDGGLVKW,-0.129 ± 0.41
4,DDNSMSDTHLL,1.13 ± 0.25
5,QYMLFMYLGVVLKCH,0.644 ± 0.59
6,IHVLADIYCVWGGLKEFWTS,0.374 ± 0.65
7,FADIKYLSTFG,-0.045 ± 0.37
8,NLSVY,-0.232 ± 0.74
9,KSQCWRSGLVLFNA,-0.243 ± 0.36
10,MFFSSIYVAYYGLLLIYSYM,inactive
11,YWGARNCLLYWWYGLTTEGS,0.028 ± 0.44
12,LVCSGKWFVKSARLQ,0.962 ± 0.14
13,SAWKDAYFRVDVNEDFVS,0.154 ± 0.32
14,RCVETSFTSGFIVGELLMRM,-0.84 ± 1.3
15,SHGNLYGHHERLNSTRNPES,-1.14 ± 0.9
16,NVGVMGFISASVWLFCWGIF,-0.783 ± 0.33
17,VSMRN,0.305 ± 0.21
18,DGNNNKLVMVLWLSYADYRW,inactive
19,AMWYMKCNTYKVWLGDMYLV,0.193 ± 0.18
20,FCFILSNVFLGLWMI,-1.37 ± 2.7
21,VWYVLMSSSVTYYLSR,-0.075 ± 0.55
22,IKRTCYPLVRGVPNQIRNLK,-0.091 ± 0.68

row,Substance,amyloid nucleation score
1,GISGLVLSYGADSGPGTWGK,-0.63 ± 0.42
2,ELRSIDTWYPASGCML,-0.187 ± 0.29
3,RSTISGWR,inactive
4,SNNDFLTSPAFGLLTG,0.066 ± 0.45
5,IHGNDPMLTVGSSMYV,0.323 ± 0.41
6,GGLRWRRCFLP,-1.58 ± 0.93
7,YILNGVPVKAFFLGYGADYS,-0.979 ± 1.3
8,GYSGGKLLVGGTYTRIV,0.243 ± 0.43
9,PYHEMGIYYLGGLYSK,0.743 ± 1.1
10,SASPLVAMDNVGCA,-0.748 ± 0.37
11,FLFLTRRWEFVHMLPVSCEV,-0.817 ± 2.4
12,CPGFD,0.595 ± 0.64
13,WNIGYNFVSDSLPPRNYFVE,-0.198 ± 0.37
14,YYFEVAVGQMSFTANVLVLS,2.34 ± 0.28
15,MRMISFKTVGALFVYCLSLG,0.313 ± 0.49
16,RKCWGSKEGVKKT,-0.62 ± 0.39
17,HNMHFSPWIKCNSVYEFSGR,1.56 ± 0.73
18,AFDIVDRSRYILY,0.58 ± 0.6
19,VNVFRNLFVTTDLWLSSTQN,-0.437 ± 0.66
20,VQGYTYGGCDGFMEWLGKLI,-0.295 ± 0.61
21,FLRALCSVGSRHTTPAFDYG,0.351 ± 0.43
22,MRIHCVN,-0.529 ± 2.1
